Test results: article PMC9482650, “Quantitative fragmentomics allow affinity mapping of interactomes” (Nature Communications, 2022)
Each block holds one binder with its values, some of them ahead of it.

What was measured:
Experiment in all cases: holdup assay
Set-up in all cases: key: below the threshold = too weak to quantify, mostly under pKd 3.1 to 4
AHNAK1, Q09666 = target: AHNAK1, Q09666
APBA2_1, Q99767 = target: T1, APBA2_1, Q99767
T1 sequence (Q99767 563-664, limits assumed, looked up): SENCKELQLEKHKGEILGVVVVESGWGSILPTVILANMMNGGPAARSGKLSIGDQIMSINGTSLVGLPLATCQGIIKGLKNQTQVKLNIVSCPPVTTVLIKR

APBA3_1, O96018 = target: T2, APBA3_1, O96018
T2 sequence (O96018 389-490, limits assumed, looked up): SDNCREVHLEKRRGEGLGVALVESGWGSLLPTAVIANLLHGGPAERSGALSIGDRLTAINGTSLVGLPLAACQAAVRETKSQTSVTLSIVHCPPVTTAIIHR

ARHGEF11, O15085 = target: T3, ARHGEF11, O15085
T3 sequence (O15085 42-136, limits assumed, looked up): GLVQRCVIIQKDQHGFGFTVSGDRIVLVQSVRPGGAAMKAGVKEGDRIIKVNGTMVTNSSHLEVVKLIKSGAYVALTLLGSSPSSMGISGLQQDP

DLG2_3, Q15700 = target: DLG2_3, Q15700
DLG3_1, Q92796 = target: T4, DLG3_1, Q92796
T4 sequence (Q92796 125-227, limits assumed, looked up): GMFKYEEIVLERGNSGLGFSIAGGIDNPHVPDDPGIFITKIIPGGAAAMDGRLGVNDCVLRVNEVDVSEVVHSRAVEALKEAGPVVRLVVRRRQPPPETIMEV

DLG5_1, Q8TDM6 = target: DLG5_1, Q8TDM6
DVL3, Q92997 = target: T5, DVL3, Q92997
T5 sequence (Q92997 244-331, limits assumed, looked up): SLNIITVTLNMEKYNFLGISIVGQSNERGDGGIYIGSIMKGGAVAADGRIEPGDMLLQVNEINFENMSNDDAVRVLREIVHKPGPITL

FRMPD2_1, Q68DX3 = target: FRMPD2_1, Q68DX3
FRMPD2_3, Q68DX3 = target: FRMPD2_3, Q68DX3
GRIP2_6, Q9C0E4 = target: GRIP2_6, Q9C0E4
HTRA2, O43464 = target: HTRA2, O43464
IL16_4, Q14005 = target: IL16_4, Q14005
LAP2, Q96RT1 = target: LAP2, Q96RT1
LRRC7, Q96NW7 = target: T6, LRRC7, Q96NW7
T6 sequence (Q96NW7 1440-1537, limits assumed, looked up): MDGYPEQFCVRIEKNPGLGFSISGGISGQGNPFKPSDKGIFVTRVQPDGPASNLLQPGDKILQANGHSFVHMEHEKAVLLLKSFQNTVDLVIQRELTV

MAGI2_6, Q86UL8 = target: MAGI2_6, Q86UL8
MPP6, Q9NZW5 = target: T7, MPP6, Q9NZW5
T7 sequence (Q9NZW5 125-219, limits assumed, looked up): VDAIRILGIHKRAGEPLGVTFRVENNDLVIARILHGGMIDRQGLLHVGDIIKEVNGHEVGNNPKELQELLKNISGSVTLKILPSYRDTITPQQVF

MPP7, Q5T2T1 = target: T8, MPP7, Q5T2T1
T8 sequence (Q5T2T1 134-230, limits assumed, looked up): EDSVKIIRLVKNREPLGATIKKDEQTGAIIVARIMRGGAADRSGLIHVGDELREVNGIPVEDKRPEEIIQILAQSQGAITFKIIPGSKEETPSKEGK

PARD3_3, Q8TEW0 = target: PARD3_3, Q8TEW0
PDZD2_2, O15018 = target: T9, PDZD2_2, O15018
T9 sequence (O15018 329-429, limits assumed, looked up): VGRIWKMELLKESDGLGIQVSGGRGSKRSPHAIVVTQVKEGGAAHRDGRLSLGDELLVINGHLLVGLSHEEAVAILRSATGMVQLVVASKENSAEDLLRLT

PTPN13_1, Q12923 = target: T10, PTPN13_1, Q12923
T10 sequence (Q12923 1088-1188, limits assumed, looked up): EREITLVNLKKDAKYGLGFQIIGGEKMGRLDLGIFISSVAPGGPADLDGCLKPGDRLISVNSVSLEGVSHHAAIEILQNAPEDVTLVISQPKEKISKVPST

RAPGEF6, Q8TEU7 = target: T11, RAPGEF6, Q8TEU7
T11 sequence (Q8TEU7 525-625, limits assumed, looked up): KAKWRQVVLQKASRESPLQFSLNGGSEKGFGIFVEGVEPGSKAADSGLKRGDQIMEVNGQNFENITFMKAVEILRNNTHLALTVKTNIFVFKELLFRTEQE

SNTA1, Q13424 = target: T12, SNTA1, Q13424
T12 sequence (Q13424 82-180, limits assumed, looked up): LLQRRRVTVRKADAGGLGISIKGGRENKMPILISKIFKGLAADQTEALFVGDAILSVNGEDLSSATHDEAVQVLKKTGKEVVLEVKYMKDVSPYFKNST

SNTB1, Q13884 = target: T13, SNTB1, Q13884
T13 sequence (Q13884 107-205, limits assumed, looked up): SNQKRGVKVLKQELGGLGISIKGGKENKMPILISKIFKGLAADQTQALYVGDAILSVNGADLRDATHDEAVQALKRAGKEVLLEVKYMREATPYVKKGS

SNX27, Q96L92 = target: SNX27, Q96L92
[1] = plain residues with an end cap or a label only (N-terminal biotin on a linker: ahx)
[2] = plain residues with an end cap or a label only (N-terminal biotin on a linker: ttds)

Sequence of PARD3_3, Q8TEW0 (Q8TEW0 582-685): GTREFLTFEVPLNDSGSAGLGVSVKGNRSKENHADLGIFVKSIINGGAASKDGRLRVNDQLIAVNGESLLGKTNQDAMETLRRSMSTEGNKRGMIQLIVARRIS
Sequence of LAP2, Q96RT1 (Q96RT1 other isoform, or with tags, fused parts or gaps): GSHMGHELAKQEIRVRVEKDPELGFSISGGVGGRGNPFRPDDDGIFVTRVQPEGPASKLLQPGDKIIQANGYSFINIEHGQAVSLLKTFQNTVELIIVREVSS
Sequence of FRMPD2_3, Q68DX3 (Q68DX3 1073-1166): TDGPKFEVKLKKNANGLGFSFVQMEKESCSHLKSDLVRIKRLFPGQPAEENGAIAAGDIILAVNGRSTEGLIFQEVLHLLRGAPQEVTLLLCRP
Sequence of DLG5_1, Q8TDM6 (Q8TDM6 617-713): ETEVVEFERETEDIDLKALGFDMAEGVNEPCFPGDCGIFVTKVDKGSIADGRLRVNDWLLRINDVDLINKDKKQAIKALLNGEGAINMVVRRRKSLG
Sequence of HTRA2, O43464 (O43464 355-458): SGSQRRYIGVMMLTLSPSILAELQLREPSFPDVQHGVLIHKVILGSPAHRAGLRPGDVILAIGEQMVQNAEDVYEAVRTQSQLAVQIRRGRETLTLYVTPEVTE
Sequence of GRIP2_6, Q9C0E4 (Q9C0E4 648-740): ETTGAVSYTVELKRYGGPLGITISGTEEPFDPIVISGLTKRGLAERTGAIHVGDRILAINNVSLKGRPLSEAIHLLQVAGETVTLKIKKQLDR
Sequence of AHNAK1, Q09666 (Q09666 4-100): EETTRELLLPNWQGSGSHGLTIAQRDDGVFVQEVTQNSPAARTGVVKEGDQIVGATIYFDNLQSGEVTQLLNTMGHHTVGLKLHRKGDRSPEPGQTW
Sequence of FRMPD2_1, Q68DX3 (Q68DX3 770-861): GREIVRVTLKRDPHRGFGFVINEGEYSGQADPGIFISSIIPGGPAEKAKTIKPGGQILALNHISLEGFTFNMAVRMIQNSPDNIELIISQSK
Sequence of IL16_4, Q14005 (Q14005 1229-1329): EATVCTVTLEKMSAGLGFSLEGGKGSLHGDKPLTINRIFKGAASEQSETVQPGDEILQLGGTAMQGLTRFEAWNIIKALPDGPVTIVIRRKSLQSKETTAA
Sequence of MAGI2_6, Q86UL8 (Q86UL8 1141-1229): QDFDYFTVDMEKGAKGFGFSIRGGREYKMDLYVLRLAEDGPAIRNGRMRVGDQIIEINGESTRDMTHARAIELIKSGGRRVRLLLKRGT

pKd (AHNAK1, Q09666; [1]): below the threshold
pKd (APBA2_1, Q99767; [1]): below the threshold
pKd (APBA3_1, O96018; [1]): below the threshold
pKd (ARHGEF11, O15085; [1]): below the threshold
pKd (DLG2_3, Q15700; [1]): below the threshold
pKd (DLG3_1, Q92796; [1]): below the threshold
pKd (DLG5_1, Q8TDM6; [1]): below the threshold
pKd (DVL3, Q92997; [1]): 3.61
pKd (FRMPD2_1, Q68DX3; [1]): below the threshold
pKd (FRMPD2_3, Q68DX3; [1]): 4.17
pKd (GRIP2_6, Q9C0E4; [1]): 3.91
pKd (HTRA2, O43464; [1]): below the threshold
pKd (IL16_4, Q14005; [1]): below the threshold
pKd (LAP2, Q96RT1; [1]): below the threshold
pKd (LRRC7, Q96NW7; [1]): below the threshold
pKd (MAGI2_6, Q86UL8; [1]): below the threshold
pKd (MPP6, Q9NZW5; [1]): below the threshold
pKd (MPP7, Q5T2T1; [1]): 4.29
pKd (PARD3_3, Q8TEW0; [1]): 4.29
pKd (PDZD2_2, O15018; [1]): 3.99
pKd (PTPN13_1, Q12923; [1]): below the threshold
pKd (RAPGEF6, Q8TEU7; [1]): below the threshold
pKd (SNTA1, Q13424; [1]): below the threshold
pKd (SNTB1, Q13884; [1]): below the threshold
pKd (SNX27, Q96L92; [1]): below the threshold
Binder: KKNKDKEYYV [NRXN1, Q9ULB1]

pKd (AHNAK1, Q09666; [2]): below the threshold
pKd (APBA2_1, Q99767; [2]): below the threshold
pKd (APBA3_1, O96018; [2]): below the threshold
pKd (ARHGEF11, O15085; [2]): below the threshold
pKd (DLG2_3, Q15700; [2]): 3.91
pKd (DLG3_1, Q92796; [2]): below the threshold
pKd (DLG5_1, Q8TDM6; [2]): below the threshold
pKd (DVL3, Q92997; [2]): below the threshold
pKd (FRMPD2_1, Q68DX3; [2]): below the threshold
pKd (FRMPD2_3, Q68DX3; [2]): below the threshold
pKd (GRIP2_6, Q9C0E4; [2]): below the threshold
pKd (HTRA2, O43464; [2]): below the threshold
pKd (IL16_4, Q14005; [2]): below the threshold
pKd (LAP2, Q96RT1; [2]): below the threshold
pKd (LRRC7, Q96NW7; [2]): below the threshold
pKd (MAGI2_6, Q86UL8; [2]): below the threshold
pKd (MPP6, Q9NZW5; [2]): 3.52
pKd (MPP7, Q5T2T1; [2]): below the threshold
pKd (PARD3_3, Q8TEW0; [2]): 3.54
pKd (PDZD2_2, O15018; [2]): 3.79
pKd (PTPN13_1, Q12923; [2]): 3.66
pKd (RAPGEF6, Q8TEU7; [2]): 3.67
pKd (SNTA1, Q13424; [2]): below the threshold
pKd (SNTB1, Q13884; [2]): below the threshold
pKd (SNX27, Q96L92; [2]): below the threshold
Binder: QPGTPTRTAV [MAP2K2, P36507]

pKd (AHNAK1, Q09666; [1]): below the threshold
pKd (APBA2_1, Q99767; [1]): below the threshold
pKd (APBA3_1, O96018; [1]): below the threshold
pKd (DLG2_3, Q15700; [1]): below the threshold
pKd (DLG3_1, Q92796; [1]): below the threshold
pKd (DLG5_1, Q8TDM6; [1]): below the threshold
pKd (DVL3, Q92997; [1]): below the threshold
pKd (FRMPD2_1, Q68DX3; [1]): below the threshold
pKd (FRMPD2_3, Q68DX3; [1]): below the threshold
pKd (GRIP2_6, Q9C0E4; [1]): below the threshold
pKd (HTRA2, O43464; [1]): below the threshold
pKd (IL16_4, Q14005; [1]): below the threshold
pKd (LAP2, Q96RT1; [1]): below the threshold
pKd (LRRC7, Q96NW7; [1]): below the threshold
pKd (MPP6, Q9NZW5; [1]): below the threshold
pKd (MPP7, Q5T2T1; [1]): below the threshold
pKd (PARD3_3, Q8TEW0; [1]): below the threshold
pKd (PDZD2_2, O15018; [1]): 4.54
pKd (PTPN13_1, Q12923; [1]): below the threshold
pKd (RAPGEF6, Q8TEU7; [1]): below the threshold
pKd (SNTA1, Q13424; [1]): below the threshold
pKd (SNTB1, Q13884; [1]): below the threshold
pKd (SNX27, Q96L92; [1]): below the threshold
Binder: LCKSHAFSHV [PDLIM7, Q9NR12;Q9NR12-1]
